Experimental data reported in paper PMC3085951 (Journal of controlled release : official journal of the …, 2011).

T1: MT1-160p (MT1-MMP amino acids 160-174) (human)
T1 peptide: REVPYAYIREGHEKQ


Experiments:
[1] = target: recombinant human MT1-MMP catalytic domain (human, UniProt P50281 114-287); experiment: ELISA
[2] = target: T1, MT1-160p (MT1-MMP amino acids 160-174); experiment: ELISA

Binder	Kd [1] [nM]	Kd [2] [nM]
HWKHLHNTKTFL [MT1-AF7p]	47.4	
HWKHLHNTKTFL [phage-displayed MT1-AF7p]		0.075
